Laboratory results published in article PMC3855715, “Two high-resolution structures of the human E3 ubiquitin ligase Siah1” (Acta Crystallographica Section F, 2013).

T1: Siah1 (construct used for the complex with SIP, limits not stated) (human, UniProt Q8IUQ4 1-282)
T1 construct: Siah1 (seven-in-absentia homologue 1), human, UniProt Q8IUQ4
T1 sequence (looked up): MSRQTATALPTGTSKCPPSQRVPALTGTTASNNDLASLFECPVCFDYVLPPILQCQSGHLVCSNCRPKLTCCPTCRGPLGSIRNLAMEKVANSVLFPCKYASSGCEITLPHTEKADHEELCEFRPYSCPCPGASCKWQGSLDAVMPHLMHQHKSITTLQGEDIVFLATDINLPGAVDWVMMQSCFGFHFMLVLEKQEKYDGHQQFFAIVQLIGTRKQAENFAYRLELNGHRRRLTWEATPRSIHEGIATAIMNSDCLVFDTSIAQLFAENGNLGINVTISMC

B1: human Siah1 without the RING domain (residues 91-282) (domain or fragment)
chain: MANSVLFPCKYASSGCEITLPHTEKADHEELCEFRPYSCPCPGASCKWQGSLDAVMPHLMHQHKSITTLQGEDIVFLATDINLPGAVDWVMMQSCFGFHFMLVLEKQEKYDGHQQFFAIVQLIGTRKQAENFAYRLELNGHRRRLTWEATPRSIHEGIATAIMNSDCLVFDTSIAQLFAENGNLGINVTISMC
notes: additional methionine at the N-terminus, a cloning artifact (seen in chain A of the 1.95 A structure); also called seven-in-absentia homologue 1; truncated Siah1; source: E. coli, purified as described previously (Rimsa et al., 2013)
B2: full-length human SIP (Siah-interacting protein) (natural protein, UniProt Q9HB71 1-228, looked up)
chain: MASEELQKDLEEVKVLLEKATRKRVRDALTAEKSKIETEIKNKMQQKSQKKAELLDNEKPAAVVAPITTGYTVKISNYGWDQSDKFVKIYITLTGVHQVPTENVQVHFTERSFDLLVKNLNGKSYSMIVNNLLKPISVEGSSKKVKTDTVLILCRKKVENTRWDYLTQVEKECKEKEKPSYDTETDPSEGLMNVLKKIYEDGDDDMKRTINKAWVESREKQAKGDTEF

How the values were obtained:
[1] = biological target: the molecule itself; test: SEC; size-exclusion chromatography during purification of Siah1 91-282; single species of approximate mass 39 kDa
[2] = biological target: T1, Siah1 (construct used for the complex …); test: SEC; size-exclusion gel chromatography of Siah1 with full-length SIP; complex purified; settings: both partners purified

| Binder | stoichiometry N [1] | stoichiometry N [2] |
| --- | --- | --- |
| B1 | 2 | – |
| B2 | – | 1 |
